The data set concerns RAD51 wild type (Homo sapiens). In words: EMSA. Conditions: 1 mM ATP, 2 mM Ca2+; saturated at 0.8 uM; EMSA: 50 mM Tris-HCl pH 7.5, 100 mM NaCl, 2 mM CaCl2, 1 mM ATP, 1 mM DTT, 5 nM DNA, 5 min at 37 C; 0.8% agarose in 1x TB (dsDNA) or 5% native PAGE in 0.5x TB ….

In turn, ds-66 bp-AF532 yielded a K half of 300 nM.

Values taken from PMC4703882.
